Target: AG^(74-173) (A. thaliana) (UniProt P17839)
Experiment: SAXS with on-line SEC; Superdex 75 3.2/300 PC on-line at ESRF BM29, 0.1 ml/min, room temperature, 30 mM Tris pH 8.0, 300 mM NaCl, 1 mM TCEP, 5% glycerol; mass from correlated volume and Porod volume; self-association

AG^(74-173), sequence (P17839 74-173): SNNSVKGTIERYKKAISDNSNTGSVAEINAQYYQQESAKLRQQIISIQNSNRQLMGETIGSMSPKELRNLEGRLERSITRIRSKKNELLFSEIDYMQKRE

- stoichiometry N: 2
Substance: AG^(74-173) (from UniProt P17839 74-173) (domain or fragment)
